Substrate: O=Cc1ccc([N+](=O)[O-])cc1
Test: purified protein
Conditions: nitromethane 1 M (excess), 3-18 mM aldehyde, 0.3 mg/mL enzyme, 40 °C, 5 min
Excerpt: Henry reaction, product by HPLC, Michaelis-Menten fit on LmrR (Lactococcal multidrug resistance Regulator)

B1: LmrR (Lactococcal multidrug resistance Regulator) (Lactococcus cremoris subsp. cremoris MG1363) (protein)
chain: MAEIPKEMLRAQTNVILLNVLKQGDNYVYGIIKQVKEASNGEMELNEATLYTIFKRLEKDGIISSYWGDESQGGRRKYYRLTEIGHENMRLAFESWSRVDKIIENLEANKKSEAIK
Km: 9.30 mM
Vmax: 1290 µM/min
kcat: 0.967 s⁻¹
kcat/Km: 104 M⁻¹ s⁻¹

— publication PMC10992053, “Rationally introducing non-canonical amino acids to enhance catalytic activity of LmrR for Henry reaction” (Bioresources and Bioprocessing, 2024)
